The record followed here is US20160347841A1 (UNIVERSIDAD NACIONAL AUT NOMA DE M XICO, published 2016).

This experiment has as its target T1, DEC-205 receptor of dog spleen cells (dog, UniProt A0A8I3Q134 28-1723).
T1 construct: whole, on cells; It only reports that no 205 kDa band was isolated
The experiment can be described thus: immunoprecipitation from spleen white cell lysate, SDS-PAGE. The protocol: For this purpose Jurkat cells (the cell line of human T lymphocytes) as well as white cells obtained from the spleens of different animals (pigs and dogs) were lysed in an immunoprecipitation buffer (PBS pH 7.4, 1% Triton X-100 with protease inhibitor). […] Then, 50 μL of A-Sepharose protein (Pierce, Rockford, Ill., USA) was used for immunoprecipitation, with incubation being done for one hour at ambient temperature. The immune complexes that were formed were washed extensively. The immunoprecipitates were eluted by boiling for five minutes in a sample buffer with SDS. These precipitates were analyzed on a 10% SDS-PAGE gel under reducing conditions using molecular weight markers. […] The molecular weights are indicated.

T1 sequence (A0A8I3Q134 entry or part of it): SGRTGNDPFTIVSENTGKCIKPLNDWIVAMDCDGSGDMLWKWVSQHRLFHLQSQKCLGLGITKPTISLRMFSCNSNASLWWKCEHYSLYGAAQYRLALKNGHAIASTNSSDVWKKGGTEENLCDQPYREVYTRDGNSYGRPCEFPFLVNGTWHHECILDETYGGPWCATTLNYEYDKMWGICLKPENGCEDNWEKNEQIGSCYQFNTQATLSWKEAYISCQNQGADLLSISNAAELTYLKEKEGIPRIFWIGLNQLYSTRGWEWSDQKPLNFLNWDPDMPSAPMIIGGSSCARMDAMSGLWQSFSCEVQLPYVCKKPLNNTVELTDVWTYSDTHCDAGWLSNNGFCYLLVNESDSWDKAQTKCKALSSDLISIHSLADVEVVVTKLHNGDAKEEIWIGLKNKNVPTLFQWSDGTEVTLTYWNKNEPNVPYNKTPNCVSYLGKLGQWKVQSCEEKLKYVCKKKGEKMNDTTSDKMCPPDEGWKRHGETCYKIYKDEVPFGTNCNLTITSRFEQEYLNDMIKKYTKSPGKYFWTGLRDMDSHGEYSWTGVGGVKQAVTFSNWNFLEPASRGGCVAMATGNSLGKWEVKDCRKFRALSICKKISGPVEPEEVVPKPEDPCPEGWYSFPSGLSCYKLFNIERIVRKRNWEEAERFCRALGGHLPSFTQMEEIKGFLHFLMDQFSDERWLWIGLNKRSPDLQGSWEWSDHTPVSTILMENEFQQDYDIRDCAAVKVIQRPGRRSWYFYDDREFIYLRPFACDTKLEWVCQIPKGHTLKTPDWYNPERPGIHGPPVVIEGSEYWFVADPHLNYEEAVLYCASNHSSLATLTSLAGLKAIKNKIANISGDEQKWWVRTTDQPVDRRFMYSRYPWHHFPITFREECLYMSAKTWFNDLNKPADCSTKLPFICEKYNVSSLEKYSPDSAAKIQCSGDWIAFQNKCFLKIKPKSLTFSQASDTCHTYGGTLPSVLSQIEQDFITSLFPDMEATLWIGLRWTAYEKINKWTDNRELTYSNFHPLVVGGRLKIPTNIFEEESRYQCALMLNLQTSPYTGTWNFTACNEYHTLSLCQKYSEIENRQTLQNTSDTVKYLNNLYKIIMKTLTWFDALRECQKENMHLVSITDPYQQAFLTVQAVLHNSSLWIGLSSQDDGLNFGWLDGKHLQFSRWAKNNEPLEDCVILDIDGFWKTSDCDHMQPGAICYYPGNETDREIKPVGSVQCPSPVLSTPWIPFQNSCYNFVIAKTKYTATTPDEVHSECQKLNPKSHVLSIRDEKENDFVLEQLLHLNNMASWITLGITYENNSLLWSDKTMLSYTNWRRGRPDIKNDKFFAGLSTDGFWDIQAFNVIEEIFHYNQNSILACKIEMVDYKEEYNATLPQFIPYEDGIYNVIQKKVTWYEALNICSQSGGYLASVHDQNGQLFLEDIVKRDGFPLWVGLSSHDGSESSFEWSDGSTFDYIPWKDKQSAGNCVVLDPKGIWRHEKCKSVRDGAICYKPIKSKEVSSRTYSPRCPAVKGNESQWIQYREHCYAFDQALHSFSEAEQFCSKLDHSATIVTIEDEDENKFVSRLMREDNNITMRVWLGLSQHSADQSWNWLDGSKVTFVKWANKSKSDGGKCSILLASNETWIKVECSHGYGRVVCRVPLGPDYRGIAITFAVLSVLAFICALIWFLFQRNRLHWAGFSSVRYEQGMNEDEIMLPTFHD

B1: murine monoclonal antibody 2F2E8E3B6 anti-CTLD-2 (antibody, IgG2a, V domains shown)
VH: EVQLQQSTAEFVKPGASVKLSCTASGFNIKDTYIHWVKQRPEQGLEWIGRIDPANGNTRYDPKFQGKATMTADTSSNTAYLQLSSLTSEDTAVYYCARYDVTYWGQGTLVTVS
VL: DIVMSQSPSSLAVSAGERVTMSCKSSQSLLNSRTRKNYLAWYQQKPGQSPKLLIYWASTRESGVPDRFTGSGSGTDFTLTISSVRAEDLAVYYCKQSYNLYTFGRGTKLEIK
notes: also called 2F2E8D3B6; AbM 2F2E8E3B6
For B1, the binding result is given as “no binding”.
